Results taken from patent US20220025021A1 (BETH ISRAEL DEACONESS MEDICAL CENTER, published 2022).

How the values were obtained:
Assay in all cases: cell-based or functional assay
[1] = biological target: HIV-1 Env of pseudovirus SC422661.8 (HIV-1)
[2] = biological target: HIV-1 Env of pseudovirus RHPA4259.7 (HIV-1)
[3] = biological target: HIV-1 Env of pseudovirus Du172.17 (HIV-1)
[4] = biological target: HIV-1 Env of pseudovirus BB1012-11.TC21 (HIV-1)
[5] = biological target: HIV-1 Env of pseudovirus CNE52 (HIV-1)
[6] = biological target: HIV-1 Env of pseudovirus 0260.v5.c36 (HIV-1)

Binder	neutralization IC50 [1]	neutralization IC80 [1]	neutralization IC50 [2]	neutralization IC80 [2]	neutralization IC50 [3]	neutralization IC80 [3]	neutralization IC50 [4]	neutralization IC80 [4]	neutralization IC50 [5]	neutralization IC80 [5]	neutralization IC50 [6]	neutralization IC80 [6]
MS-86 (antibody) VH: not shown VL: DFVLTQSPHSLSVTPGESASISCKSSHSLIHGDRNNYLAWYVQKPGRSPQLLIYLASSRASGVPDRFSGSGSDKDFTLKISRVETEDVGTYYCMQGRESPWTFGQGTKVDIKRTVAAPSVFIFPPSDEQLKSGTASVVCLLNNFYPREAKVQWKVDNALQSGNSQESVTEQDSKDSTYSLSSTLTLSKADYEKHKVYACEVTHQGLSSPVTKSFNRGEC	1.2 mg/L	> 25 mg/L	0.305 mg/L	1.1 mg/L	4.94 mg/L	18.8 mg/L	0.048 mg/L	0.159 mg/L	1.46 mg/L	13.3 mg/L	0.036 mg/L	0.191 mg/L
MS-90 (antibody) VH: not shown VL: DFVLTQSPLSLSVTPGESASISCKSSHSLIHGDRNNYLAWYVQKPGRSPQLLIYLASSRASGVPDRFSGSGSDKDFTLKISRVETEDVGTYYCMQGRESPWTFGQGTKVDIKRTVAAPSVFIFPPSDEQLKSGTASVVCLLNNFYPREAKVQWKVDNALQSGNSQESVTEQDSKDSTYSLSSTLTLSKADYEKHKVYACEVTHQGLSSPVTKSFNRGEC	1.48 mg/L	> 25 mg/L	0.254 mg/L	1.33 mg/L	4.07 mg/L	15.6 mg/L	0.044 mg/L	0.204 mg/L	1.05 mg/L	8.56 mg/L	0.03 mg/L	0.168 mg/L
MS-66 (antibody) VH: not shown VL: DIVLTQSPHSLSVTPGESASISCKSSHSLIHGDRNNYLAWYVQKPGRSPQLLIYLASSRASGVPDRFSGSGSDKDFTLKISRVETEDVGTYYCMQGRESPWTFGQGTKVDIKRTVAAPSVFIFPPSDEQLKSGTASVVCLLNNFYPREAKVQWKVDNALQSGNSQESVTEQDSKDSTYSLSSTLTLSKADYEKHKVYACEVTHQGLSSPVTKSFNRGEC	0.902 mg/L	5.82 mg/L	0.238 mg/L	0.745 mg/L	2.08 mg/L	11.3 mg/L	0.017 mg/L	0.074 mg/L	0.408 mg/L	3.74 mg/L	0.024 mg/L	0.092 mg/L
MS-83 (antibody, V domains shown) VH: QVQLVQSGPEVRKPGTSVKVSCKAPGNTLKTYDLHWVRSVPGQGLQWMGWISHEGDKKVIVERFKAKVTIDWDRSTNTAYLQLSGLTSGDTAVYYCAKGSKHRLRDYALYDDEGALNWAVDVDYLSNLEFWGQGTAVTVSS VL: DFVLTQSPHSLSVTPGESASISCKSSHSLIHGDRNNYLAWYVQKPGRSPQLLIYLASSRASGVPDRFSGSGSDKDFTLKISRVETEDVGTYYCMQGRESPWTFGQGTKVDIKR	0.267 mg/L	2.11 mg/L	0.15 mg/L	0.663 mg/L	1.47 mg/L	7.4 mg/L	0.018 mg/L	0.082 mg/L	0.135 mg/L	1.04 mg/L	0.023 mg/L	0.087 mg/L
MS-89 (antibody, V domains shown) VH: QVQLVQSGPEVRKPGTSVKVSCKAPGYTLKTYDLHWVRSVPGQGLQWMGWISHEGDKKVIVERFKAKVTITWDRSTNTAYLQLSGLTSGDTAVYYCAKGSKHRLRDYALYDDDGALNWAVDVDYLSNLEFWGQGTAVTVSS VL: DFVLTQSPLSLSVTPGESASISCKSSHSLIHGDRNNYLAWYVQKPGRSPQLLIYLASSRASGVPDRFSGSGSDKDFTLKISRVETEDVGTYYCMQGRESPWTFGQGTKVDIKR	0.786 mg/L	> 25 mg/L	0.29 mg/L	1.04 mg/L	11.9 mg/L	> 25 mg/L	0.032 mg/L	0.143 mg/L	2.34 mg/L	23.8 mg/L	0.036 mg/L	0.197 mg/L
MS-85 (antibody, V domains shown) VH: QVQLVQSGPEVRKPGTSVKVSCKAPGNTLKTYDLHWVRSVPGQGLQWMGWISHEGDKKVIVERFKAKVTIDWDRSTNTAYLQLSGLTSGDTAVYYCAKGSKHRLRDYALYDDDGALNWAVDVDYLSNLEFWGQGTAVTVSS VL: DIVLTQSPHSLSVTPGESASISCKSSHSLIHGDRNNYLAWYVQKPGRSPQLLIYLASSRASGVPDRFSGSGSGTDFTLKISRVETEDVGTYYCMQGRESPWTFGQGTKVDIKR	0.54 mg/L	7.04 mg/L	0.173 mg/L	0.794 mg/L	2.23 mg/L	9.53 mg/L	0.028 mg/L	0.124 mg/L	0.341 mg/L	4.71 mg/L	0.019 mg/L	0.059 mg/L
MS-84 (antibody, V domains shown) VH: QVQLVQSGPEVRKPGTSVKVSCKAPGNTLKTYDLHWVRSVPGQGLQWMGWISHEGDKKVIVERFKAKVTIDWDRSTNTAYLQLSGLRSGDTAVYYCAKGSKHRLRDYALYDDDGALNWAVDVDYLSNLEFWGQGTAVTVSS VL: DFVLTQSPLSLPVTPGEPASISCKSSHSLIHGDRNNYLAWYVQKPGQSPQLLIYLASSRASGVPDRFSGSGSDKDFTLKISRVEAEDVGVYYCMQGRESPWTFGQGTKVDIKR	0.192 mg/L	1.37 mg/L	0.175 mg/L	0.773 mg/L	1.64 mg/L	6.55 mg/L	0.019 mg/L	0.085 mg/L	0.092 mg/L	0.83 mg/L	0.016 mg/L	0.062 mg/L
MS-88 (antibody, V domains shown) VH: QVQLVQSGPEVRKPGTSVKVSCKASGYTFKTYDLHWVRSVPGQGLQWMGWISHEGDKKVIVERFKAKVTITRDRSTNTAYLQLSGLTSGDTAVYYCAKGSKHRLRDYALYDDDGALNWAVDVDYLSNLEFWGQGTAVTVSS VL: DFVLTQSPHSLSVTPGESASISCKSSHSLIHGDRNNYLAWYVQKPGRSPQLLIYLASSRASGVPDRFSGSGSDKDFTLKISRVETEDVGTYYCMQGRESPWTFGQGTKVDIKR	1.41 mg/L	> 25 mg/L	0.504 mg/L	2.51 mg/L	> 25 mg/L	> 25 mg/L	0.02 mg/L	0.088 mg/L	5.86 mg/L	> 25 mg/L	0.178 mg/L	1.51 mg/L
MS-91 (antibody, V domains shown) VH: QVQLVQSGPEVRKPGTSVKVSCKASGYTLKTYDLHWVRSVPGQGLQWMGWISHEGDKKVIVERFKAKVTIDWDRSTNTAYLQLSGLTSGDTAVYYCAKGSKHRLRDYALYDDDGALNWAVDVDYLSNLEFWGQGTAVTVSS VL: DFVLTQSPLSLSVTPGESASISCKSSHSLIHGDRNNYLAWYVQKPGRSPQLLIYLASSRASGVPDRFSGSGSDTDFTLKISRVETEDVGTYYCMQGRESPWTFGQGTKVDIKR	1.66 mg/L	22.1 mg/L	0.267 mg/L	1.82 mg/L	3.85 mg/L	23.9 mg/L	0.037 mg/L	0.17 mg/L	1.41 mg/L	10.6 mg/L	0.046 mg/L	0.171 mg/L
MS-92 (antibody, V domains shown) VH: QVQLVQSGPEVRKPGTSVKVSCKAPGNTLKTYDLHWVRSVPGQGLEWMGWISHEGDKKVIVERFKAKVTIDRDRSTNTAYLQLSGLRSGDTAVYYCAKGSKHRLRDYALYDDDGALNWAVDVDYLSNLEFWGQGTAVTVSS VL: DIVLTQSPHSLSVTPGESASISCKSSHSLIHGDRNNYLAWYVQKPGRSPQLLIYLASSRASGVPDRFSGSGSDKDFTLKISRVETEDVGTYYCMQGRESPWTFGQGTKVDIKR	1.53 mg/L	> 25 mg/L	0.25 mg/L	1.16 mg/L	6.85 mg/L	> 25 mg/L	0.029 mg/L	0.127 mg/L	3.92 mg/L	> 25 mg/L	0.044 mg/L	0.35 mg/L
MS-87 (antibody, V domains shown) VH: QVQLVQSGPEVRKPGTSVKVSCKAPGNTLKTYDLHWVRSVPGQGLQWMGWISHEGDKKVIVERFKAKVTITRDRSTNTAYLQLSGLTSGDTAVYYCAKGSKHRLRDYALYDDDGALNWAVDVDYLSNLEFWGQGTAVTVSS VL: DFVLTQSPHSLSVTPGESASISCKSSHSLIHGDRNNYLAWYVQKPGRSPQLLIYLASSRASGVPDRFSGSGSDKDFTLKISRVETEDVGTYYCMQGRESPWTFGQGTKVDIKR	0.711 mg/L	13.9 mg/L	0.294 mg/L	1.09 mg/L	> 25 mg/L	> 25 mg/L	0.023 mg/L	0.102 mg/L	2.69 mg/L	> 25 mg/L	0.114 mg/L	1.01 mg/L
